The values below are quoted from earlier work in article PMC12060137.

pKd: −log10 of the molar value.

This data set addresses TfR1 (Homo sapiens) (UniProt P02786).

TfR1 (Homo sapiens), sequence (P02786 89-760): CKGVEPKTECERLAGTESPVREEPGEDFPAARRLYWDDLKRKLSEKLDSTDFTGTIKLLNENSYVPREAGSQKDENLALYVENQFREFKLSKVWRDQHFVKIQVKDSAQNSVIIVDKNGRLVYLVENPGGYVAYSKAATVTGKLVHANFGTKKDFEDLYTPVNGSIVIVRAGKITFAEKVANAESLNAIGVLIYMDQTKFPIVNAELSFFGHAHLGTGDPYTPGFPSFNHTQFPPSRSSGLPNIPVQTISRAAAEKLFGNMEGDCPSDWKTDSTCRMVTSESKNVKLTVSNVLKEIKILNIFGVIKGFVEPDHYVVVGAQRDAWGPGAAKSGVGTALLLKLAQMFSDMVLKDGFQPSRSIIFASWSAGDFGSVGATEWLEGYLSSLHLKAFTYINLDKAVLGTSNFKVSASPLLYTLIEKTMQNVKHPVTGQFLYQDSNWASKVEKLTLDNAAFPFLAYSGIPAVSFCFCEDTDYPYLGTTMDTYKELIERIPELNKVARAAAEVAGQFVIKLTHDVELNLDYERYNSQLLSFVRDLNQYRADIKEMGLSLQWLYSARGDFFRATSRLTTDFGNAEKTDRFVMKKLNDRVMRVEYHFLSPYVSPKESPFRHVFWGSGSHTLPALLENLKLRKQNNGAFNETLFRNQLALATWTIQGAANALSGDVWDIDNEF
HFt-W4 ferritin nanoparticle, sequence (P02794 2-183): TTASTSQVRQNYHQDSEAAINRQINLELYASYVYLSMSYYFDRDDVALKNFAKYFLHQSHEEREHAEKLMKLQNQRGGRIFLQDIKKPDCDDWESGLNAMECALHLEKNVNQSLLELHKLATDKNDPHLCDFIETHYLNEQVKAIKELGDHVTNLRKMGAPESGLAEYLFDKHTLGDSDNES

For “HFt-W4 ferritin nanoparticle (from UniProt P02794)”, the pKd is 7.60.
